# Positions of bridges follow the written chain, without caps; N, C: chain ends. Non-standard residues stand in square brackets, D forms with d. Oic = O=C(O)[C@@H]1C[C@@H]2CCCC[C@@H]2N1; Hyp = O=C(O)[C@@H]1C[C@@H](O)CN1; 4Pal = N[C@@H](Cc1ccncc1)C(=O)O; NMeNle = CCCC[C@H](NC)C(=O)O; Pro(4-NH2) = 4-aminoproline; Pro(4-Ph) = 4-phenylproline; Pip = O=C(O)[C@@H]1CCCCN1; NMeA = CN[C@@H](C)C(=O)O; dNMeA = CN[C@H](C)C(=O)O; Sar = CNCC(=O)O
# Target: T1, human PD-L1 (human, UniProt Q9NZQ7 19-239, limits assumed)
# T1 construct: also called Hu PD-L1; hPD-L1
# Test: cell binding assay, inhibition of Hu PD-L1/PD-1 binding
# T1 sequence (Q9NZQ7 19-239 limits assumed): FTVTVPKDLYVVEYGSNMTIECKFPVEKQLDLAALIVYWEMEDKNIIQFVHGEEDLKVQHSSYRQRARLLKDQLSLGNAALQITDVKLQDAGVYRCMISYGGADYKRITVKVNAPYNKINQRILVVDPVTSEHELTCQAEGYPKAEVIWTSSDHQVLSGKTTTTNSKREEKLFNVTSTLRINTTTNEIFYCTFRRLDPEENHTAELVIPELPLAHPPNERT
row,Binder,IC50
1,"{CH2CO}-F[NMeA]NPHL[NMeA]WSW[NMeNle][NMeNle]RCG-NH2 (thioether N-14; SMILES CCCC[C@H]1C(=O)N(C)[C@@H](CCCC)C(=O)N[C@@H](CCCNC(=N)N)C(=O)N[C@H](C(=O)NCC(N)=O)CSCC(=O)N[C@@H](Cc2ccccc2)C(=O)N(C)[C@@H](C)C(=O)N[C@@H](CC(N)=O)C(=O)N2CCC[C@H]2C(=O)N[C@@H](Cc2c[nH]cn2)C(=O)N[C@@H](CC(C)C)C(=O)N(C)[C@@H](C)C(=O)N[C@@H](Cc2c[nH]c3ccccc23)C(=O)N[C@@H](CO)C(=O)N[C@@H](Cc2c[nH]c3ccccc23)C(=O)N1C, macrocyclic peptide, Formula I series; also called Compound 13) [Compound No. 13]",35 nM
2,"{CH2CO}-Y[NMeA]NPHL[Sar]WSW[NMeNle][NMeNle]RCG-NH2 (thioether N-14; SMILES CCCC[C@H]1C(=O)N(C)[C@@H](CCCC)C(=O)N[C@@H](CCCNC(=N)N)C(=O)N[C@H](C(=O)NCC(N)=O)CSCC(=O)N[C@@H](Cc2ccc(O)cc2)C(=O)N(C)[C@@H](C)C(=O)N[C@@H](CC(N)=O)C(=O)N2CCC[C@H]2C(=O)N[C@@H](Cc2c[nH]cn2)C(=O)N[C@@H](CC(C)C)C(=O)N(C)CC(=O)N[C@@H](Cc2c[nH]c3ccccc23)C(=O)N[C@@H](CO)C(=O)N[C@@H](Cc2c[nH]c3ccccc23)C(=O)N1C, macrocyclic peptide, Formula I series; also called Compound 30) [Compound No. 30]",3 nM
3,"{CH2CO}-F[NMeA]NPHL[dNMeA]WSW[NMeNle][NMeNle]RCG-NH2 (thioether N-14; SMILES CCCC[C@H]1C(=O)N(C)[C@@H](CCCC)C(=O)N[C@@H](CCCNC(=N)N)C(=O)N[C@H](C(=O)NCC(N)=O)CSCC(=O)N[C@@H](Cc2ccccc2)C(=O)N(C)[C@@H](C)C(=O)N[C@@H](CC(N)=O)C(=O)N2CCC[C@H]2C(=O)N[C@@H](Cc2c[nH]cn2)C(=O)N[C@@H](CC(C)C)C(=O)N(C)[C@H](C)C(=O)N[C@@H](Cc2c[nH]c3ccccc23)C(=O)N[C@@H](CO)C(=O)N[C@@H](Cc2c[nH]c3ccccc23)C(=O)N1C, macrocyclic peptide, Formula I series; also called Compound 14) [Compound No. 14]",242 nM
4,"{CH2CO}-F[NMeA]NPHL[Sar]ASW[NMeNle][NMeNle]RCG-NH2 (thioether N-14; SMILES CCCC[C@H]1C(=O)N(C)[C@@H](CCCC)C(=O)N[C@@H](CCCNC(=N)N)C(=O)N[C@H](C(=O)NCC(N)=O)CSCC(=O)N[C@@H](Cc2ccccc2)C(=O)N(C)[C@@H](C)C(=O)N[C@@H](CC(N)=O)C(=O)N2CCC[C@H]2C(=O)N[C@@H](Cc2c[nH]cn2)C(=O)N[C@@H](CC(C)C)C(=O)N(C)CC(=O)N[C@@H](C)C(=O)N[C@@H](CO)C(=O)N[C@@H](Cc2c[nH]c3ccccc23)C(=O)N1C, macrocyclic peptide, Formula I series; also called Compound 15) [Compound No. 15]",1910 nM
5,"{CH2CO}-W[NMeA]NPHL[Sar]WSW[NMeNle][NMeNle]RCG-NH2 (thioether N-14; SMILES CCCC[C@H]1C(=O)N(C)[C@@H](CCCC)C(=O)N[C@@H](CCCNC(=N)N)C(=O)N[C@H](C(=O)NCC(N)=O)CSCC(=O)N[C@@H](Cc2c[nH]c3ccccc23)C(=O)N(C)[C@@H](C)C(=O)N[C@@H](CC(N)=O)C(=O)N2CCC[C@H]2C(=O)N[C@@H](Cc2c[nH]cn2)C(=O)N[C@@H](CC(C)C)C(=O)N(C)CC(=O)N[C@@H](Cc2c[nH]c3ccccc23)C(=O)N[C@@H](CO)C(=O)N[C@@H](Cc2c[nH]c3ccccc23)C(=O)N1C, macrocyclic peptide, Formula I series; also called Compound 25) [Compound No. 25]",19 nM
6,"{CH2CO}-F[NMeA]NPAL[Sar]WSW[NMeNle][NMeNle]RCG-NH2 (thioether N-14; SMILES CCCC[C@H]1C(=O)N(C)[C@@H](CCCC)C(=O)N[C@@H](CCCNC(=N)N)C(=O)N[C@H](C(=O)NCC(N)=O)CSCC(=O)N[C@@H](Cc2ccccc2)C(=O)N(C)[C@@H](C)C(=O)N[C@@H](CC(N)=O)C(=O)N2CCC[C@H]2C(=O)N[C@@H](C)C(=O)N[C@@H](CC(C)C)C(=O)N(C)CC(=O)N[C@@H](Cc2c[nH]c3ccccc23)C(=O)N[C@@H](CO)C(=O)N[C@@H](Cc2c[nH]c3ccccc23)C(=O)N1C, macrocyclic peptide, Formula I series; also called Compound 10) [Compound No. 10]",82 nM

# Other lines, results leading:
row,IC50,Binder
1,223 nM,"{CH2CO}-F[NMeA]APHL[Sar]WSW[NMeNle][NMeNle]RCG-NH2 (thioether N-14; SMILES CCCC[C@H]1C(=O)N(C)[C@@H](CCCC)C(=O)N[C@@H](CCCNC(=N)N)C(=O)N[C@H](C(=O)NCC(N)=O)CSCC(=O)N[C@@H](Cc2ccccc2)C(=O)N(C)[C@@H](C)C(=O)N[C@@H](C)C(=O)N2CCC[C@H]2C(=O)N[C@@H](Cc2c[nH]cn2)C(=O)N[C@@H](CC(C)C)C(=O)N(C)CC(=O)N[C@@H](Cc2c[nH]c3ccccc23)C(=O)N[C@@H](CO)C(=O)N[C@@H](Cc2c[nH]c3ccccc23)C(=O)N1C, macrocyclic peptide, Formula I series; also called Compound 8) [Compound No. 8]"
2,28 nM,"{CH2CO}-F[NMeA]NPHL[Sar]WSW[NMeNle][NMeNle]ACG-NH2 (thioether N-14; SMILES CCCC[C@H]1C(=O)N(C)[C@@H](CCCC)C(=O)N[C@@H](C)C(=O)N[C@H](C(=O)NCC(N)=O)CSCC(=O)N[C@@H](Cc2ccccc2)C(=O)N(C)[C@@H](C)C(=O)N[C@@H](CC(N)=O)C(=O)N2CCC[C@H]2C(=O)N[C@@H](Cc2c[nH]cn2)C(=O)N[C@@H](CC(C)C)C(=O)N(C)CC(=O)N[C@@H](Cc2c[nH]c3ccccc23)C(=O)N[C@@H](CO)C(=O)N[C@@H](Cc2c[nH]c3ccccc23)C(=O)N1C, macrocyclic peptide, Formula I series; also called Compound 22) [Compound No. 22]"
3,13 nM,"{CH2CO}-F[NMeA]NPHL[Sar]WAW[NMeNle][NMeNle]RCG-NH2 (thioether N-14; SMILES CCCC[C@H]1C(=O)N(C)[C@@H](CCCC)C(=O)N[C@@H](CCCNC(=N)N)C(=O)N[C@H](C(=O)NCC(N)=O)CSCC(=O)N[C@@H](Cc2ccccc2)C(=O)N(C)[C@@H](C)C(=O)N[C@@H](CC(N)=O)C(=O)N2CCC[C@H]2C(=O)N[C@@H](Cc2c[nH]cn2)C(=O)N[C@@H](CC(C)C)C(=O)N(C)CC(=O)N[C@@H](Cc2c[nH]c3ccccc23)C(=O)N[C@@H](C)C(=O)N[C@@H](Cc2c[nH]c3ccccc23)C(=O)N1C, macrocyclic peptide, Formula I series; also called Compound 16) [Compound No. 16]"

# Target: T2, hPDL1(19-239)-TVMV-His (human, UniProt Q9NZQ7 19-239)
# T2 construct: The text says amino acids 18-239, the construct name says 19-239; Expressed in HEK293T cells; Used at 10 nM final in the HTRF assay; also called PD-L1-His; PD-L1-TVMV-His
# Test: HTRF competition, PD-1-Ig binding to PD-L1-His
# Procedure: All binding studies were performed in an HTRF assay buffer consisting of dPBS supplemented with 0.1% (w/v) bovine serum albumin and 0.05% (v/v) Tween-20. […] PD-L1 fusion proteins from either human, cynomologous macaques, or mouse were used. HTRF detection was achieved using europium crypate-labeled anti-Ig monoclonal antibody (1 nM final) and allophycocyanin (APC) labeled anti-His monoclonal antibody (20 nM final). Antibodies were diluted in HTRF detection buffer and 5 μl was dispensed on top of binding reaction. The reaction was allowed to equilibrate for 30 minutes and signal (665 nm/620 nm ratio) was obtained using an EnVision fluorometer. […]
# HTRF Experiments were performed essentially as outlined supra. Variant macrocyclic peptides were created as outlined herein.
# T2 sequence (Q9NZQ7 other isoform, or with tags, fused parts or gaps limits assumed): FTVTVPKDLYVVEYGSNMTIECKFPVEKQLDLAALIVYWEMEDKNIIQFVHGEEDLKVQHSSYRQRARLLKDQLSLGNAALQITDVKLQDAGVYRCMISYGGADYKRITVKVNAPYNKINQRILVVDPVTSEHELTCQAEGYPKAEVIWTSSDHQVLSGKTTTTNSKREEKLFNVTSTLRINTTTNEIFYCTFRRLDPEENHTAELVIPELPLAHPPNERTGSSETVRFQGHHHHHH
row,Binder,IC50
1,{CH2CO}-F[NMeA]N[Oic]HL[Sar]WSW[NMeNle][NMeNle]RCG-NH2 (thioether N-14; SMILES CCCC[C@H]1C(=O)N(C)[C@@H](CCCC)C(=O)N[C@@H](CCCNC(=N)N)C(=O)N[C@H](C(=O)NCC(N)=O)CSCC(=O)N[C@@H](Cc2ccccc2)C(=O)N(C)[C@@H](C)C(=O)N[C@@H](CC(N)=O)C(=O)N2[C@@H](C[C@@H]3CCCC[C@@H]32)C(=O)N[C@@H](Cc2c[nH]cn2)C(=O)N[C@@H](CC(C)C)C(=O)N(C)CC(=O)N[C@@H](Cc2c[nH]c3ccccc23)C(=O)N[C@@H](CO)C(=O)N[C@@H](Cc2c[nH]c3ccccc23)C(=O)N1C) [Compound No. 45],105 nM
2,{CH2CO}-F[NMeA]N[Pip]HL[Sar]WSW[NMeNle][NMeNle]RCG-NH2 (thioether N-14; SMILES CCCC[C@H]1C(=O)N(C)[C@@H](CCCC)C(=O)N[C@@H](CCCNC(=N)N)C(=O)N[C@H](C(=O)NCC(N)=O)CSCC(=O)N[C@@H](Cc2ccccc2)C(=O)N(C)[C@@H](C)C(=O)N[C@@H](CC(N)=O)C(=O)N2CCCC[C@H]2C(=O)N[C@@H](Cc2c[nH]cn2)C(=O)N[C@@H](CC(C)C)C(=O)N(C)CC(=O)N[C@@H](Cc2c[nH]c3ccccc23)C(=O)N[C@@H](CO)C(=O)N[C@@H](Cc2c[nH]c3ccccc23)C(=O)N1C) [Compound No. 44],34 nM
3,{CH2CO}-F[NMeA]N[Pro(4-Ph)]HL[Sar]WSW[NMeNle][NMeNle]RCG-NH2 (thioether N-14) [Compound No. 46],873 nM
4,{CH2CO}-F[NMeA]N[Pro(4-NH2)]HL[Sar]WSW[NMeNle][NMeNle]RCG-NH2 (thioether N-14) [Compound No. 48],40 nM

# Further lines, results first:
row,IC50,Binder
1,33 nM,{CH2CO}-[4Pal][NMeA]NPHL[Sar]WSW[NMeNle][NMeNle]RCG-NH2 (thioether N-14; SMILES CCCC[C@H]1C(=O)N(C)[C@@H](CCCC)C(=O)N[C@@H](CCCNC(=N)N)C(=O)N[C@H](C(=O)NCC(N)=O)CSCC(=O)N[C@@H](Cc2ccncc2)C(=O)N(C)[C@@H](C)C(=O)N[C@@H](CC(N)=O)C(=O)N2CCC[C@H]2C(=O)N[C@@H](Cc2c[nH]cn2)C(=O)N[C@@H](CC(C)C)C(=O)N(C)CC(=O)N[C@@H](Cc2c[nH]c3ccccc23)C(=O)N[C@@H](CO)C(=O)N[C@@H](Cc2c[nH]c3ccccc23)C(=O)N1C) [Compound No. 39]
2,27 nM,{CH2CO}-F[NMeA]N[Hyp]HL[Sar]WSW[NMeNle][NMeNle]RCG-NH2 (thioether N-14; SMILES CCCC[C@H]1C(=O)N(C)[C@@H](CCCC)C(=O)N[C@@H](CCCNC(=N)N)C(=O)N[C@H](C(=O)NCC(N)=O)CSCC(=O)N[C@@H](Cc2ccccc2)C(=O)N(C)[C@@H](C)C(=O)N[C@@H](CC(N)=O)C(=O)N2C[C@H](O)C[C@H]2C(=O)N[C@@H](Cc2c[nH]cn2)C(=O)N[C@@H](CC(C)C)C(=O)N(C)CC(=O)N[C@@H](Cc2c[nH]c3ccccc23)C(=O)N[C@@H](CO)C(=O)N[C@@H](Cc2c[nH]c3ccccc23)C(=O)N1C) [Compound No. 47]
